Results taken from PMC4087533 (Nature, 2014).

B1: ammonia channel AmtB from E. coli (tag-removed) (natural protein)
chain: GASVADKADNAFMMICTALVLFMTIPGIALFYGGLIRGKNVLSMLTQVTVTFALVCILWVVYGYSLAFGEGNNFFGNINWLMLKNIELTAVMGSIYQYIHVAFQGSFACITVGLIVGALAERIRFSAVLIFVVVWLTLSYIPIAHMVWGGGLLASHGALDFAGGTVVHINAAIAGLVGAYLIGKRVGFGKEAFKPHNLPMVFTGTAILYIGWFGFNAGSAGTANEIAALAFVNTVVATAAAILGWIFGEWALRGKPSLLGACSGAIAGLVGVTPACGYIGVGGALIIGVVAGLAGLWGVTMLKRLLRVDDPCDVFGVHGVCGIVGCIMTGIFAASSLGGVGFAEGVTMGHQLLVQLESIAITIVWSGVVAFIGYKLADLTVGLRVPEEQEREGLDVNSHGENAYNA

Tests used:
[1] = molecular target: mechanosensitive channel of large conductance (MscL) from Mycobacterium tuberculosis (tag-removed) (Mycobacterium tuberculosis); experiment: native MS
[2] = molecular target: the molecule itself; experiment: native MS

Molecule | stoichiometry N [1] | stoichiometry N [2]
mechanosensitive channel of large conductance (MscL) from Mycobacterium tuberculosis (tag-removed) (natural protein) | 5 | 
B1 |  | 3
